2 molecules from patent US20240383984A1 (Genentech, published 2024) can be followed below.

The target of experiment [1] is T1, human FcRH3 (BIACORE analyte) (human, UniProt Q96P31 18-573, limits assumed).
T1 construct: also called huFcRH3
T1 sequence (looked up): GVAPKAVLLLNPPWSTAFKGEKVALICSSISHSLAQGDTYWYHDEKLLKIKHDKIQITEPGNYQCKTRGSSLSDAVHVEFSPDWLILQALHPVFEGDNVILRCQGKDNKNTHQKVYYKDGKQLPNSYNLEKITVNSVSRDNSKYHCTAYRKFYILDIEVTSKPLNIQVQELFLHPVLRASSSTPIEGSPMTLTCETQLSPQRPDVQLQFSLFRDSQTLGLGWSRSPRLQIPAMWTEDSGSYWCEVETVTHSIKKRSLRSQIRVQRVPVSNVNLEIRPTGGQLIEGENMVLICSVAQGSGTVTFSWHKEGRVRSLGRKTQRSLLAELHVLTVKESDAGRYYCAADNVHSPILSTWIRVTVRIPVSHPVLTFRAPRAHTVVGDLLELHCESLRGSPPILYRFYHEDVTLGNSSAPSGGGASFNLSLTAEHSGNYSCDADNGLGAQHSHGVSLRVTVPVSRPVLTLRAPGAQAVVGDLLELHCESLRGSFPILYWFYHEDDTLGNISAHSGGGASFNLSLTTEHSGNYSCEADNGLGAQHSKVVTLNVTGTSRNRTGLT
The experiment in a line: SPR (BIACORE), TDB captured as ligand, FcRH3 as analyte, 25 °C, 1:1 binding model. (In SPR one partner is held on a chip, and binding of the other changes the refractive index at the surface.)

Experiment [2] has as its target T2, cynomolgus FcRH5 protein fragment (soluble) (cynomolgus monkey).
T2 construct: whole entry named; also called Cyno FcRH5 (BIACORE analyte)
T2 chain: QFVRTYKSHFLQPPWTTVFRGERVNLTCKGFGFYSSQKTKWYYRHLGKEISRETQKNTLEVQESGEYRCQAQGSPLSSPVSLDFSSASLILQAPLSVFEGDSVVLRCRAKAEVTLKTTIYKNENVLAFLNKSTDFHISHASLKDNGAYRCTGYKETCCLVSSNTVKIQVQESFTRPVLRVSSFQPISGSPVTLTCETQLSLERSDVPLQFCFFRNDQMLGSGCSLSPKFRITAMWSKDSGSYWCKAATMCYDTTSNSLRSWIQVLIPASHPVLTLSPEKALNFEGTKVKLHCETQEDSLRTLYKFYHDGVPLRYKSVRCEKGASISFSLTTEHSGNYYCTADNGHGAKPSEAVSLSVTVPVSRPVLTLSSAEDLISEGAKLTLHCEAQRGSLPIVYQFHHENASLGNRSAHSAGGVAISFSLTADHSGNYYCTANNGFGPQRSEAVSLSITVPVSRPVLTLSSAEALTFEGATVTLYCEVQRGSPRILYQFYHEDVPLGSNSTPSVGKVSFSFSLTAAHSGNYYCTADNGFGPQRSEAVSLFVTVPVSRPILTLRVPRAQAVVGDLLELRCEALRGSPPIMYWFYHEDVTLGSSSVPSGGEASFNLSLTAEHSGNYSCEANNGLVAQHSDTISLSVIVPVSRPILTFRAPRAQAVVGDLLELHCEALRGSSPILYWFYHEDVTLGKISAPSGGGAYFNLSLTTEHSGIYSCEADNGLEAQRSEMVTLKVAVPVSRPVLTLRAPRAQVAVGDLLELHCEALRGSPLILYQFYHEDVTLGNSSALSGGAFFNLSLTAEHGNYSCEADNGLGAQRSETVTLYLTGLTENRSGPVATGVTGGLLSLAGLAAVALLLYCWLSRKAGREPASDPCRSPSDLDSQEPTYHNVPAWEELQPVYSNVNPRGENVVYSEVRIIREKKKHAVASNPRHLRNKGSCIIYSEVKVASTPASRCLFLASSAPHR
Nature of the experiment: SPR (BIACORE), Cyno FcRH5, 1:1 binding model.

Experiment [3] has as its target T3, human FcRH5 protein fragment (soluble) (human, UniProt Q96RD9 16-851).
T3 construct: whole entry named; also called soluble human FcRH5; Human FcRH5 (BIACORE analyte)
T3 sequence: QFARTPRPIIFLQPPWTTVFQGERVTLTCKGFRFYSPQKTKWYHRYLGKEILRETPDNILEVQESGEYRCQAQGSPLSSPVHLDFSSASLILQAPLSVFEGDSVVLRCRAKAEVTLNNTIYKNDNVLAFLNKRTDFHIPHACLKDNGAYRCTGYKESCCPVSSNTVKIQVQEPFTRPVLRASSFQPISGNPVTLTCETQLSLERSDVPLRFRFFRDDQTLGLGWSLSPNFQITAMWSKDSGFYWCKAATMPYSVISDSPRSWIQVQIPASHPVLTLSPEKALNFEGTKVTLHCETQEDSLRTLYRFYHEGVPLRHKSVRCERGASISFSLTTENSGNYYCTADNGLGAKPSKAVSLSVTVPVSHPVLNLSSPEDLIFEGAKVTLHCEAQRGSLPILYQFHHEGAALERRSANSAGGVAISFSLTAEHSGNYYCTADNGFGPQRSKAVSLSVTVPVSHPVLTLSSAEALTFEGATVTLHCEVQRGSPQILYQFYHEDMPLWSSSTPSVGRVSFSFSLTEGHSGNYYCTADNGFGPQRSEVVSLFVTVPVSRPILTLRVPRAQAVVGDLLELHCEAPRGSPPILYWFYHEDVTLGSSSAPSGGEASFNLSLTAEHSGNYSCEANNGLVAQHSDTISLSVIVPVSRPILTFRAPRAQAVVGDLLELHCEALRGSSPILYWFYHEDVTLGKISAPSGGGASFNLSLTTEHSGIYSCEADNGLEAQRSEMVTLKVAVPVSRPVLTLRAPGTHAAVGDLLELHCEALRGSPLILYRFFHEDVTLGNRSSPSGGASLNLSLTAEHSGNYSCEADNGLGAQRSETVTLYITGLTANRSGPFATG
Nature of the experiment: SPR (BIACORE), TDB captured as ligand, Hu FcRH5 as analyte, 25 °C, 1:1 binding model.

Experiment [4] has as its target T2, cynomolgus FcRH5 protein fragment …. The experiment in a line: SPR (BIACORE), TDB captured as ligand, Cyno FcRH5 as analyte, 25 °C, 1:1 binding model.

B1: hu1G7.v1.4/38E4.v1 TDB (bispecific antibody, V domains shown)
VH 1: EVQLVESGPGLVKPSETLSLTCTVSGFSLTRFGVHWVRQPPGKGLEWLGVIWRGGSTDYNAAFMSRLTISKDNSKNQVSLKLSSVTAADTAVYYCSNHYYGSSDYALDNWGQGTLVTVSS
VL 1: DIQMTQSPSSLSASVGDRVTITCKASQDVRNLVVWFQQKPGKAPKLLIYSGSYRYSGVPSRFSGSGSGTDFTLTISSLQPEDFATYYCQQHYSPPYTFGQGTKVEIK
VH 2: EVQLVQSGAEVKKPGASVKVSCKASGFTFTSYYIHWVRQAPGQGLEWIGWIYPENDNTKYNEKFKDRVTITADTSTSTAYLELSSLRSEDTAVYYCARDGYSRYYFDYWGQGTLVTVSS
VL 2: DIVMTQSPDSLAVSLGERATINCKSSQSLLNSRTRKNYLAWYQQKPGQSPKLLIYWTSTRKSGVPDRFSGSGSGTDFTLTISSLQAEDVAVYYCKQSFILRTFGQGTKVEIK
notes: knob-into-hole TDB; also called 1G7.v1.4 TDB; 1G7.v1.4 (TDB format)
Usually koff stands for the rate constant with which the complex falls apart. A higher koff goes with a short-lived complex. In general, kon refers to the rate constant with which the complex forms. In experiment [1], B1 displayed a koff of 0.00833 s⁻¹ and a kon of 109000 M⁻¹ s⁻¹.

B2: 1G7.v85/38E4.v1 TDB (bispecific antibody, V domains shown)
VH 1: EVQLVESGPGLVKPSETLSLTCTVSGFSLTRFGVHWVRQPPGKGLEWLGVIWRGGSTDYNAAFVSRLTISKDNSKNQVSLKLSSVTAADTAVYYCSNHYYGSSDYALDNWGQGTLVTVSS
VL 1: DIQMTQSPSSLSASVGDRVTITCKASQDVRNLVVWFQQKPGKAPKLLIYSGSYRYSGVPSRFSGSGSGTDFTLTISSLQPEDFATYYCQQHYSPPYTFGQGTKVEIK
VH 2: EVQLVQSGAEVKKPGASVKVSCKASGFTFTSYYIHWVRQAPGQGLEWIGWIYPENDNTKYNEKFKDRVTITADTSTSTAYLELSSLRSEDTAVYYCARDGYSRYYFDYWGQGTLVTVSS
VL 2: DIVMTQSPDSLAVSLGERATINCKSSQSLLNSRTRKNYLAWYQQKPGQSPKLLIYWTSTRKSGVPDRFSGSGSGTDFTLTISSLQAEDVAVYYCKQSFILRTFGQGTKVEIK
notes: knob-into-hole TDB; also called 1G7.v85 TDB; 1G7.v85 (TDB format)
The term Kd denotes the equilibrium constant for the complex coming apart. Higher therefore signals lower affinity. In experiment [2], B2 gave a Kd of 7.82 nM, a koff of 0.000455 s⁻¹ and a kon of 58200 M⁻¹ s⁻¹. In experiment [3], this molecule yielded a Kd of 2.35 nM, a koff of 0.00104 s⁻¹ and a kon of 441000 M⁻¹ s⁻¹. Further, in experiment [4], the Kd is 6.76 nM, the koff amounted to 0.000847 s⁻¹ and the kon came to 125000 M⁻¹ s⁻¹.
